Earlier results in paper PMC8035318.

Target: Polκ RIR (Homo sapiens) (UniProt Q9UBT6)
Assay: SPR

Kd: 1700 nM
Substance: Rev1 CT (from UniProt Q9UBZ9)
